Measurements reported in article PMC6635409.
“And” between values parts separate entries of the source, which are not always exact repeats. Identical values can stand only once.

Target: nicotinic acetylcholine receptor subunit α9 (CHRNA9) (human (endogenous in BT474, MDA-MB-231, A549, RT4, MIA PaCa-2 and clinical breast tumors)) (UniProt Q9UGM1)
Assay: co-IP; endogenous proteins in MDA-MB-231 cells; reciprocal IPs, 1% NP40 lysis buffer, Protein G beads; IP ratio (IPR) against input, threshold >3% in both

Chain of UniProt Q9UGM1 (Q9UGM1 23-479): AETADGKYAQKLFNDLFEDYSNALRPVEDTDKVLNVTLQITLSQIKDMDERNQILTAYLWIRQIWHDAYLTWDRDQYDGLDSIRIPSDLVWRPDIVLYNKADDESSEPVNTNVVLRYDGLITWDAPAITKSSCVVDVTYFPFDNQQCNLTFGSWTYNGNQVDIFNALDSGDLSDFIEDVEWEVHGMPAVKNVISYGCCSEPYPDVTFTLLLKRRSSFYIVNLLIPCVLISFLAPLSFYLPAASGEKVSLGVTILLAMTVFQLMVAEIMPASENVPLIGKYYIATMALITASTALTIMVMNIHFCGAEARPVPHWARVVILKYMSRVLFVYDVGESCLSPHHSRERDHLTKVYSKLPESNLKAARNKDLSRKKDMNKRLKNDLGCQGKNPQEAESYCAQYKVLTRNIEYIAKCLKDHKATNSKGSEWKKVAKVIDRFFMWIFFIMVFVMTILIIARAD

Substance: ABCB1 (from UniProt P08183 1-1280) (natural protein)
- IP ratio (IPR): 3.05% and 25.1%
